Results: patent US20160096874A1, “MRG RECEPTOR MODULATORS” (BAYER PHARMA AKTIENGESELLSCHAFT, priority 2013, published 2016)
Entries after “also recorded” stand apart in the source; their conditions may differ. Peptide text beside a SMILES is read from it.

Experiments:
CHEM1 cells = test: Fluo8 assay, Calcium release in CHEM1 (control) cells without MrgX2 overexpression; format: cell-based, rat; conditions: control cell line, same experimental conditions, result in words
Method: (§1) The Fluo8 assay is a cell based assay format for the determination of intracellular Calcium release. Cell were seeded on microtiter plates and incubated under standard cell culture conditions. After 24 h the medium was removed and the cells were washed with PBS. The cells were incubated with loading buffer (40 ml PBS with 2 mM Calcium +800 μl brilliant black (2%) +732 μl pobenecid (0.5 M) in 1N NaOH +400 μl Pluronic (10%) in water +152 μl Fluo8 (5.7 μg/ml) in water) for 30 minutes. For fluorescence readout and compound testing a FLIPR tetra system was used according to the manufactures protocol (Molecular Devices, Calif. 94089-1136, USA).
The used cell lines CHEM1 and CHEM1-MrgX2 are adherent rat cell lines (Millipore, Billerica, Mass. 01821, USA) with were cultures under standard cell culture conditions.

human MrgX2 = target: T1, human MrgX2 (Homo sapiens, UniProt Q96LB1); test: Fluo8 assay, intracellular Calcium release in CHEM1-MrgX2 cells; format: cell-based
T1 construct: The used cell line is overexpressing MrgX2 in CHEM1 by recombinant expression; host or cells: CHEM1 (adherent rat cell line)
T1 sequence (Q96LB1 1-330): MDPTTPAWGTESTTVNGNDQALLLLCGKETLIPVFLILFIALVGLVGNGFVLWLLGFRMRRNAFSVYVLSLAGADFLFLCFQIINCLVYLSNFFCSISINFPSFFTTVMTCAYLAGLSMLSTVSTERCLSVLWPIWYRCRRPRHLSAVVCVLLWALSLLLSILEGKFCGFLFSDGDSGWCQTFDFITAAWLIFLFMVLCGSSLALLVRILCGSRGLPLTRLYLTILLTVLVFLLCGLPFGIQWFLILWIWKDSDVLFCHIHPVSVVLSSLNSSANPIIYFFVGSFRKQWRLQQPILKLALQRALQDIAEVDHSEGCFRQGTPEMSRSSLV
Method: as §1, with “minutes.” for “minutes. For fluorescence readout and compound testing a FLIPR tetra system was used according to the manufactures protocol (Molecular Devices, Calif. 94089-1136, USA).”

human MrgX2 (human) = human MrgX2 (human) (UniProt Q96LB1); test: cell-based or functional assay
CXCR4 = target: T2, CXCR4 (Homo sapiens, UniProt P61073); test: CXCR4 activity assay (CRE-luciferase reporter); format: cell-based; conditions: result in words
T2 construct: expressed in transfected cells
Text: The CXCR4 receptor is a chemokine receptor and belongs to the family of G protein coupled receptors (GPCRs). Its only known endogenous ligand is stromal cell-derived factor 1 (SDF-1a). CXCR4 is a Gi coupled receptor. Its activation leads to a decrease of intracellular cAMP, which could be monitored by recombinant cAMP-responsive element (CRE) regulated luciferase expression. For the characterization of modulators of CXCR4 activity, stable cell lines expressing recombinant CXCR4 and a CRE-luciferase reporter vector were established. The cells were incubated with forskolin at a concentration of 0.5 μM, SDF-1a (at 20 nM) and test compounds and incubated for 4 h under standard cell culture conditions. Luciferase substrate was added and the luminescence was measured for 60 seconds.

T2 sequence (P61073 whole entry, species assumed): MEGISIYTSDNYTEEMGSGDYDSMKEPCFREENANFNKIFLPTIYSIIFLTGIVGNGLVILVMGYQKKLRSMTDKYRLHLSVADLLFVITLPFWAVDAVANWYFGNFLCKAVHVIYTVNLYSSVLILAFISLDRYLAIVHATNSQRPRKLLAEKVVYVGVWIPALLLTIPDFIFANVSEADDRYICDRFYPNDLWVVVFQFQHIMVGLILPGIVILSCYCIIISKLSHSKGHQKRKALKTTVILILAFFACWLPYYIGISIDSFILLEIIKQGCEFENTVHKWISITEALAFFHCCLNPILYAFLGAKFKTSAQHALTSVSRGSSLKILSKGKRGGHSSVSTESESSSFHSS

## CC(C)C[C@H](NC(=O)[C@H](C)NC(=O)[C@H](Cc1c[nH]c2ccccc12)NC(=O)[C@H](CCCCN)NC(=O)[C@H](CC(N)=O)NC(=O)[C@H](Cc1c[nH]c2ccccc12)NC(=O)[C@H](CCCCN)NC(=O)[C@H](CCCCN)NC(=O)[C@H](CCCNC(=N)N)NC(=O)[C@H](Cc1ccccc1)NC(=O)[C@H](CCC(=O)O)NC(=O)[C@H](CO)NC(=O)[C@H](C)NC(=O)[C@@H](NC(=O)[C@H](CC(=O)O)NC(=O)[C@H](CC(C)C)NC(=O)[C@H](CCCNC(=N)N)NC(=O)[C@H](C)N)C(C)C)C(=O)N[C@@H](CO)C(=O)N[C@@H](CCCNC(=N)N)C(N)=O [PAMP, reference compound] (H-ARLDVASEFRKKWNKWALSR-NH2)
CHEM1 cells
  Calcium release on CHEM1 without MrgX2: not in CHEM1
Human MrgX2; Fluo8 assay, result in words
  Calcium release / activity on MrgX2 (CHEM1-MrgX2): dose dependent Calcium release

## NPY: peptide analyzed to characterize the specificity of CXCL14 to MrgX2 activation [reference compound]
CHEM1 cells
  Calcium release on CHEM1 without MrgX2: Neither NPY or angiotension II nor galanin show a dose dependent Calcium release
Human MrgX2; Fluo8 assay, result in words
  Calcium release / activity on MrgX2 (CHEM1-MrgX2): Neither NPY or angiotension II nor galanin show a dose dependent Calcium release

## PAMP (from UniProt P35318 22-185) (peptide)
Human MrgX2 (human)
  EC50 of calcium release (Fluo8 assay) on CHEM1-MrgX2 cells: 490 nM

## angiotensin II (DRVYIHPF) [reference compound]
CHEM1 cells
  Calcium release on CHEM1 without MrgX2: Neither NPY or angiotension II nor galanin show a dose dependent Calcium release
Human MrgX2; Fluo8 assay, result in words
  Calcium release / activity on MrgX2 (CHEM1-MrgX2): Neither NPY or angiotension II nor galanin show a dose dependent Calcium release

## human CXCL14 (from UniProt O95715 35-111) (ligand)
Human MrgX2 (human)
  EC50 of intracellular calcium release (Fluo8 assay) on CHEM1-MrgX2 cells: 570 nM

B1: Chemokine (C-X-C motif) ligand 14 (protein, listed as Homo sapiens)
chain: SKCKCSRKGPKIRYSDVKKLEMKPKYPHCEEKMVIITTKSVSRYRGQEHCLHPKLQSTKRFIKWYNAWNEKRRVYEE
notes: small cytokine belonging to the CXC chemokine family
CHEM1 cells
  Calcium release on CHEM1 without MrgX2: no significant calcium release
Human MrgX2; Calcium release, Fluo8 assay, CHEM1 overexpressing MrgX2
  EC50: 570 nM
Human MrgX2; Fluo8 assay, result in words
  Calcium release / activity on MrgX2 (CHEM1-MrgX2): activated by CXCL14 in a dose dependent matter; also recorded: specific agonist
CXCR4
  activity on G-protein coupled receptor CXCR4: antagonist

B2: Mouse CXCL14: mouse CXCL14, amino acid sequence in FIG. 19; differs from human by two amino acid residues (protein)
chain: SKCKCSRKGPKIRYSDVKKLEMKPKYPHCEEKMVIVTTKSMSRYRGQEHCLHPKLQSTKRFIKWYNAWNEKRRVYEE
CHEM1 cells
  Calcium release on CHEM1 without MrgX2: not on CHEM1 without MrgX2
Human MrgX2; Calcium release, result in words
  EC50 on CHEM1-MrgX2 compared with human CXCL14: comparable EC50
Human MrgX2; Fluo8 assay, result in words
  Calcium release / activity on MrgX2 (CHEM1-MrgX2): dose dependent Calcium release
